B1: Ras-related GTP-binding protein D (Homo sapiens), Q9NQL2 (parent)
chain: MSQVLGKPQPQDEDDAEEEEEEDELVGLADYGDGPDSSDADPDSGTEEGVLDFSDPFSTEVKPRILLMGLRRSGKSSIQKVVFHKMSPNETLFLESTNKICREDVSNSSFVNFQIWDFPGQIDFFDPTFDYEMIFRGTGALIFVIDSQDDYMEALARLHLTVTRAYKVNTDINFEVFIHKVDGLSDDHKIETQRDIHQRANDDLADAGLEKIHLSFYLTSIYDHSIFEAFSKVVQKLIPQLPTLENLLNIFISNSGIEKAFLFDVVSKIYIATDSTPVDMQTYELCCDMIDVVIDISCIYGLKEDGAGTPYDKESTAIIKLNNTTVLYLKEVTKFLALVCFVREESFERKGLIDYNFHCFRKAIHEVFEVRMKVVKSRKVQNRLQKKKRATPNGTPRVLL

Variants of: B1
Settings: with sylc_human LARS1, Q9P2J5
sylc_human LARS1, Q9P2J5, sequence (Q9P2J5 whole entry, looked up): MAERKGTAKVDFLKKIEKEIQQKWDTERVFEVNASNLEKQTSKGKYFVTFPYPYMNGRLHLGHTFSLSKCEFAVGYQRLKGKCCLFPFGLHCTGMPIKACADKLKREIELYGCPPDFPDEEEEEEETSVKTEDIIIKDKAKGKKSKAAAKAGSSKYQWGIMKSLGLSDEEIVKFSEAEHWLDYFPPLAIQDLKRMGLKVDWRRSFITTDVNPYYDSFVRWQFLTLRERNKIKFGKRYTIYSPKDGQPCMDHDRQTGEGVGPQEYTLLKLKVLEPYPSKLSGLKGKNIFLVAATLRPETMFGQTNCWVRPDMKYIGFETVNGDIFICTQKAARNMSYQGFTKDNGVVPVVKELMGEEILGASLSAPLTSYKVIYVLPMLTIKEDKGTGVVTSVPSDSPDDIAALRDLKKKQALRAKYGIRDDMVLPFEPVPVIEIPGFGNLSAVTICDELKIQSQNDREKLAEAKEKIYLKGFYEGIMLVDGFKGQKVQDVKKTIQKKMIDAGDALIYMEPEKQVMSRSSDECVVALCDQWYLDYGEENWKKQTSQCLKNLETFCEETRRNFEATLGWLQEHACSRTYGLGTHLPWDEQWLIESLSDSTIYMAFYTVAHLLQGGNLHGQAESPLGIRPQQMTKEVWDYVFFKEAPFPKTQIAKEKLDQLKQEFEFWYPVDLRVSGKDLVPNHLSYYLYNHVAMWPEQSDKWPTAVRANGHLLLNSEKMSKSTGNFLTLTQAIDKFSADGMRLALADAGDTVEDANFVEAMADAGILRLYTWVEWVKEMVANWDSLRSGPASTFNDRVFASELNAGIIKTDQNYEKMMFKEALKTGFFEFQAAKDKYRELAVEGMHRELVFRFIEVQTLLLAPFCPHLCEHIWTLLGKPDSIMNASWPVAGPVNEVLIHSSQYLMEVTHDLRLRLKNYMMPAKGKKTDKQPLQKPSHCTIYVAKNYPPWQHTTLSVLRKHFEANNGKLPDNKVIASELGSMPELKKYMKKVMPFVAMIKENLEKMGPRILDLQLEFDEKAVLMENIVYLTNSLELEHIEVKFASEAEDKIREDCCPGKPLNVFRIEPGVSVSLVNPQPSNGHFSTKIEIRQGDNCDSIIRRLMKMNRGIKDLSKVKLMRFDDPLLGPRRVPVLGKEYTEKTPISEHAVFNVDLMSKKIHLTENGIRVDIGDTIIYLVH

effect of a mutation on the interaction | Variant
increasing interaction strength | Q121L
decreasing interaction strength | S77L

— IntAct's records for PubMed 22424946
